In the supplement of paper PMC6757056:
± gives the standard deviation of the averaged measurements.

B1: library; a variant is named by its letters at N, in order (parent)
chain: GCUGUCACCGGUGUAUUACCCUAGUGGUCGACCGGUCUGAUGAGUCUNNNNNNAGACGAAACAGC

What was measured:
hypoxanthine [1] = variants of: B1; assay: FACS-Seq fitted mean relative fluorescence mCherry/BFP without ligand (log10 relative fluorescence); ligand: hypoxanthine (xanthine aptamer); higher = higher reporter protein expression; conditions: HEK293T, ligand present: no
Outline: (§1)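 After lentiviral transduction, HEK293T library cells bearing an mCherry ribozyme-switch reporter and an EF1α-BFP marker were enriched. They were then held for 48 h with or without ligand and sorted by mCherry/BFP into 6 bins, and each bin's genomic DNA was PCR-amplified, barcoded and MiSeq-sequenced. Fluorescence is expressed as a normalized fitted mean: the normal mean of log10(mCherry/BFP) bin counts, scaled to five spiked-in control ribozymes.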

hypoxanthine [2] = variants of: B1; assay: normalized RNA/DNA level with ligand (relative to sTRSVctl = 100) (log10 (% of sTRSVctl)); ligand: hypoxanthine (xanthine aptamer); higher = less ribozyme self-cleavage, higher mRNA level; conditions: ligand concentration (+) RNA-Seq: 5 mM, HEK293T, reporter: mCherry (pCS4076), ligand present: yes
Outline: (§2)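 Ribozyme switch library plasmids linked to reporters were introduced into HEK293T cells at 4 µg per 6-well well, with ligand, if any, added 1 h before. Total RNA was extracted with EDTA 72 h later, reverse-transcribed, amplified, barcoded and sequenced. RNA level was computed from RNA over DNA reads relative to a spiked-in non-cleaving sequence or the top sequences, then scaled and log-transformed. The top set was 25 sequences, values were ×100 and log10, and the cutoff was ≥100 DNA reads.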

hypoxanthine [3] = variants of: B1; assay: normalized RNA/DNA level without ligand (relative to sTRSVctl = 100) (log10 (% of sTRSVctl)); ligand: hypoxanthine (xanthine aptamer); higher = less ribozyme self-cleavage, higher mRNA level; conditions: HEK293T, reporter: mCherry (pCS4076), ligand present: no
Outline: as §2

hypoxanthine [4] = variants of: B1; assay: FACS-Seq fitted mean relative fluorescence mCherry/BFP with ligand (log10 relative fluorescence); ligand: hypoxanthine (xanthine aptamer); ligand concentration (+) FACS-Seq: 5 mM; higher = higher reporter protein expression; conditions: HEK293T, ligand present: yes
Outline: as §1

Variant	FACS-Seq fitted mean (log10) (hypoxanthine [1])	normalized RNA/DNA level with ligand (log10) (hypoxanthine [2])	normalized RNA/DNA level without ligand (log10) (hypoxanthine [3])	FACS-Seq fitted mean (log10) (hypoxanthine [4])
GCGAGU	0.238 ± 0.013	1.86 ± 0.044	1.23 ± 0.059	0.662 ± 0.069
UCGAGU	-0.023 ± 0.0044	1.74 ± 0.037	1.2 ± 0.071	0.407 ± 0.029
ACGAGU	0.0593 ± 0.021	1.76 ± 0.022	1.11 ± 0.047	0.609 ± 0.0067
ACGAUA	0.143 ± 0.0029	1.87 ± 0.03	1.582 ± 0.013	0.508 ± 0.011
GCGAUC	0.2339 ± 0.00091	1.87 ± 0.041	1.46 ± 0.038	0.601 ± 0.025
UCGAUC	0.537 ± 0.11	1.98 ± 0.033	1.96 ± 0.031	0.59 ± 0.045
GCGAUG	0.314 ± 0.033	1.77 ± 0.028	1.24 ± 0.092	0.754 ± 0.064
ACGAUG	0.311 ± 0.018	1.734 ± 0.013	1.23 ± 0.036	0.629 ± 0.079
CCGAUU	0.52 ± 0.04	1.963 ± 0.019	1.78 ± 0.027	0.524 ± 0.036
GCGAUU	-0.0877 ± 0.0032	1.88 ± 0.06	1.65 ± 0.026	0.166 ± 0.016
UCGCAA	0.477 ± 0.093	1.9 ± 0.032	1.6 ± 0.06	0.599 ± 0.058
ACGCAA	0.184 ± 0.18	1.88 ± 0.022	1.55 ± 0.039	0.149 ± 0.02
GCGCAC	0.112 ± 0.061	1.8 ± 0.2	1.412 ± 0.0031	0.0185 ± 0.28
CCGCAG	0.345 ± 0.031	1.82 ± 0.072	1.39 ± 0.032	0.638 ± 0.042
GCGCAG	-0.0972 ± 0.035	1.58 ± 0.048	1.06 ± 0.11	0.617 ± 0.052
UCGCAG	0.221 ± 0.04	1.918 ± 0.015	1.65 ± 0.078	0.46 ± 0.083
ACGCAG	-0.302 ± 0.02	1.58 ± 0.041	1.09 ± 0.044	0.377 ± 0.039
ACGCAU	0.3211 ± 0.00042	1.79 ± 0.021	1.42 ± 0.032	0.534 ± 0.042
GCGCCC	0.221 ± 0.029	1.95 ± 0.071	1.742 ± 0.0061	0.44444 ± 0.00011
UCGCCU	-0.0175 ± 0.065	2.036 ± 0.016	1.89 ± 0.062	0.035 ± 0.011
ACGCGC	0.307 ± 0.06	1.88 ± 0.052	1.54 ± 0.019	0.7 ± 0.02
GCGCGG	-0.388 ± 0.022	1.81 ± 0.072	1.3 ± 0.021	0.464 ± 0.018
ACGCGG	-0.216 ± 0.014	1.6394 ± 0.00079	1.22 ± 0.012	0.465 ± 0.047
UCGCGU	0.334 ± 0.04	1.9 ± 0.026	1.56 ± 0.048	0.509 ± 0.016

Variant	FACS-Seq fitted mean (log10) (hypoxanthine [1])	normalized RNA/DNA level with ligand (log10) (hypoxanthine [2])	normalized RNA/DNA level without ligand (log10) (hypoxanthine [3])	FACS-Seq fitted mean (log10) (hypoxanthine [4])
CCGCUA	0.42 ± 0.077	2.03 ± 0.053	1.827 ± 0.01	0.474 ± 0.034
ACGCUG	0.109 ± 0.026	1.91 ± 0.052	1.45 ± 0.031	0.566 ± 0.016
CCGGAA	0.279 ± 0.013	1.91 ± 0.027	1.71 ± 0.044	0.1512 ± 0.00072
GCGGAA	0.328 ± 0.11	1.88 ± 0.033	1.53 ± 0.069	0.67 ± 0.06
ACGGAA	0.072 ± 0.016	1.891 ± 0.013	1.45 ± 0.034	0.327 ± 0.04
CCGGAC	0.196 ± 0.035	2 ± 0.05	1.79 ± 0.077	0.439 ± 0.041
GCGGAC	0.00746 ± 0.015	1.75 ± 0.046	1.31 ± 0.032	0.546 ± 0.037
ACGGAC	0.332 ± 0.11	1.92 ± 0.06	1.7 ± 0.029	0.565 ± 0.062
CCGGAG	0.0637 ± 0.015	1.86 ± 0.11	1.36 ± 0.11	0.573 ± 0.039
GCGGAG	-0.112 ± 0.056	1.66 ± 0.054	1.24 ± 0.052	0.449 ± 0.1
UCGGAG	-0.494 ± 0.057	1.8831 ± 0.00053	1.41 ± 0.064	-0.522 ± 0.082
ACGGAG	-0.0823 ± 0.0037	1.62 ± 0.031	1.12 ± 0.052	0.482 ± 0.12
GCGGAU	0.308 ± 0.01	1.863 ± 0.0028	1.48 ± 0.039	0.547 ± 0.08
ACGGAU	-0.0352 ± 0.029	1.7216 ± 0.0016	1.24 ± 0.068	0.537 ± 0.024
GCGGCG	-0.49 ± 0.037	1.93 ± 0.045	1.514 ± 0.012	-0.0806 ± 0.025
UCGGCG	0.493 ± 0.023	1.982 ± 0.0021	1.8 ± 0.03	0.666 ± 0.025
ACGGCG	-0.0504 ± 0.0018	1.91 ± 0.025	1.42 ± 0.015	0.466 ± 0.082
CCGGGA	0.607 ± 0.06	1.97 ± 0.022	1.82 ± 0.037	0.674 ± 0.071
GCGGGA	0.182 ± 0.017	1.97 ± 0.034	1.718 ± 0.012	0.591 ± 0.025
UCGGGA	0.091 ± 0.059	1.82 ± 0.078	1.23 ± 0.021	0.767 ± 0.094
ACGGGA	0.166 ± 0.0066	1.84 ± 0.024	1.371 ± 0.0073	0.623 ± 0.022
CCGGGC	0.124 ± 0.013	1.99 ± 0.074	1.88 ± 0.019	0.382 ± 0.068
ACGGGC	0.13 ± 0.011	1.94 ± 0.035	1.79 ± 0.035	0.4948 ± 0.0031
GCGGGG	0.17 ± 0.0079	1.96 ± 0.031	1.56 ± 0.026	0.433 ± 0.03

Variant	FACS-Seq fitted mean (log10) (hypoxanthine [1])	normalized RNA/DNA level with ligand (log10) (hypoxanthine [2])	normalized RNA/DNA level without ligand (log10) (hypoxanthine [3])	FACS-Seq fitted mean (log10) (hypoxanthine [4])
ACGGGG	-0.145 ± 0.048	1.81 ± 0.035	1.33 ± 0.058	0.5396 ± 0.0011
GCGGGU	0.731 ± 0.07	1.97 ± 0.048	1.83 ± 0.016	0.735 ± 0.05
ACGGGU	0.0468 ± 0.038	1.79 ± 0.025	1.33 ± 0.07	0.569 ± 0.011
GCGGUA	0.439 ± 0.019	1.943 ± 0.0021	1.68 ± 0.036	0.677 ± 0.034
UCGGUA	0.215 ± 0.024	1.912 ± 0.014	1.562 ± 0.014	0.485 ± 0.04
ACGGUA	0.318 ± 0.0024	1.85 ± 0.056	1.57 ± 0.064	0.5989 ± 0.004
GCGGUC	0.327 ± 0.046	1.878 ± 0.015	1.5197 ± 0.00012	0.644 ± 0.063
CCGGUG	0.264 ± 0.0078	1.87 ± 0.087	1.45 ± 0.044	0.594 ± 0.0013
GCGGUG	0.212 ± 0.007	1.79 ± 0.053	1.41 ± 0.097	0.623 ± 0.019
CCGGUU	0.42 ± 0.083	2.026 ± 0.011	1.91 ± 0.032	0.297 ± 0.098
ACGUAA	0.16 ± 0.018	1.86 ± 0.072	1.491 ± 0.0093	0.4284 ± 0.0027
GCGUAC	-0.0412 ± 0.02	1.82 ± 0.069	1.33 ± 0.025	0.4627 ± 0.0021
GCGUAG	-0.175 ± 0.014	1.566 ± 0.0039	1.15 ± 0.062	0.539 ± 0.027
UCGUAG	0.444 ± 0.042	1.88 ± 0.031	1.5605 ± 0.0013	0.642 ± 0.051
ACGUAG	-0.209 ± 0.01	1.61 ± 0.021	1.16 ± 0.054	0.574 ± 0.028
GCGUAU	0.549 ± 0.031	1.83 ± 0.037	1.49 ± 0.046	0.824 ± 0.043
CCGUGA	0.311 ± 0.044	1.973 ± 0.0073	1.565 ± 0.012	0.64 ± 0.017
GCGUGA	0.278 ± 0.054	1.82 ± 0.048	1.4 ± 0.017	0.618 ± 0.062
UCGUGA	0.414 ± 0.036	1.84 ± 0.022	1.27 ± 0.039	0.578 ± 0.16
ACGUGA	-0.0934 ± 0.0088	1.808 ± 0.01	1.17 ± 0.023	0.256 ± 0.055
UCGUGC	0.446 ± 0.039	1.953 ± 0.016	1.78 ± 0.072	0.686 ± 0.013
CCGUGG	0.237 ± 0.043	1.823 ± 0.0069	1.23 ± 0.16	0.718 ± 0.053
GCGUGG	0.196 ± 0.064	1.6355 ± 0.0011	1.13 ± 0.019	0.684 ± 0.047
